Assay results as given in patent US20260001937A1, “NOVEL RECOMBINANT FIBRINOGEN VARIANTS FOR FIBRIN SEALANTS FOR SURGICAL WOUND CARE” (Julius-Maximilians-Universität Würzburg, priority 2022, published 2026).

Experiments:
ExpiCHO-S cells = experiment: α-chain degradation of recombinant fibrinogen during CHO cell expression (SDS-PAGE, in-gel digest MS); format: cell-based, Chinese hamster; settings: no protease inhibitor added
Procedure: Fibrinogen variants were expressed according to the user manual (Thermo Scientific, Waltham, USA). Briefly, ExpiCHO-S™ cells (Thermo Scientific, Waltham, USA) were cultured to a final density of 10×10^6 cells/mL. Plasmids encoding for the different fibrinogen variants (0.8 μg/mL of culture) as well as ExpiFectamine™ CHO (Thermo Scientific, Waltham, USA) were diluted in 5 mL of cold OptiPro™ medium (Thermo Scientific, Waltham, USA) and incubated for 5 min at RT. The ExpiFectamine™ CHO/DNA complex was transferred to the shaker flask and incubated at 37° C. and 8% CO2 and 130 rpm. After 24 h of incubation, ExpiFectamine™ CHO Enhancer and ExpiFectamine™ CHO Feed (Thermo Scientific, Waltham, USA) were added to the culture flask. The culture flasks were transferred to an incubator at 32° C. and 8% CO2 with shaking at 130 rpm. This step was repeated after 4 days of incubation. After another incubation step of up to 7 days at 32° C. and 8% CO2 and 130 rpm cells were harvested and centrifuged at 3000 rpm for 15 minutes. […]
Purified proteins and conjugates were analyzed using Tris-glycine SDS-PAGE either with or without the addition of β-mercaptoethanol as described before.58 Gels were stained with Coomassie Brilliant Blue G250 and documented using FluorChem FC2 imaging system (Protein Simple, Santa Clara, USA). […]

FXIIIa = molecular target: T1, FXIIIa (Homo sapiens, UniProt P00488); experiment: FXIIIa-catalyzed cross-linking of fibrin (SDS-PAGE, reducing); format: biochemical
T1 construct: purchased CSL Behring Fibrogammin
T1 sequence (P00488 39-732 limits assumed): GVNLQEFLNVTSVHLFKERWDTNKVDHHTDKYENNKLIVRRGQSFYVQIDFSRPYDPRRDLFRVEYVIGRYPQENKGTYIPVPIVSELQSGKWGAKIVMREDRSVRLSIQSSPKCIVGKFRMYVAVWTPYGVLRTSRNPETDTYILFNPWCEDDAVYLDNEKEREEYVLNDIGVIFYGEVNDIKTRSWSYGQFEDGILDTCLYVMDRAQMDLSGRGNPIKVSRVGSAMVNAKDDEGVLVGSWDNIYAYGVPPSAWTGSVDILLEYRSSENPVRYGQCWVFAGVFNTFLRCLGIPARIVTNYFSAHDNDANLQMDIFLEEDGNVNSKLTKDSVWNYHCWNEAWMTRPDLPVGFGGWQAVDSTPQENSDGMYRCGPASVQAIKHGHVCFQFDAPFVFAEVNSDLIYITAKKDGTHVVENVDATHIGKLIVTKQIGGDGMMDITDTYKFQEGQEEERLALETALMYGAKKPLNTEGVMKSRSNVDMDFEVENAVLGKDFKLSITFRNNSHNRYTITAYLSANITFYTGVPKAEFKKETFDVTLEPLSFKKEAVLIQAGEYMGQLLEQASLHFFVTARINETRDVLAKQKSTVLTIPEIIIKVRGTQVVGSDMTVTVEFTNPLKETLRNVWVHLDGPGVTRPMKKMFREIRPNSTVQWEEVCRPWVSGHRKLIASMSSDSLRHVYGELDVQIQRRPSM
Procedure: FIG. 27: FXIIIa-catalyzed cross-linking of fibrinogen. Crosslinking of His-rFbgH433R435 by rFXIIIa was examined with SDS-PAGE, under reducing conditions. Fibrinogen (0.1 mg/mL) was mixed with FXIIIa (0.5 mU/mL) and thrombin (0.05 U/mL), and the reaction was incubated for the specified time at 37° C. The reduced fibrin chains (α, β, γ, cross-linked γ-γ dimer) are indicated on the right side of the gel.
To examine cross-linking of fibrin, fibrinogen (0.1 mg/mL) was incubated at 37° C. with FXIIIa ([…]) and human-thrombin (final concentration, 0.05 U/mL) in Tris-buffer and CaCl2 (10 mM). The reactions were stopped at various times by addition of an equal volume of sodium dodecyl sulfate (SDS) sample buffer with 2-mercaptoethanol and incubation (5 min) at 90° C. Samples were separated on SDS-polyacrylamide gel electrophoresis (SDS-PAGE) and stained with Coomassie brilliant blue.

thrombin = thrombin (Homo sapiens, UniProt P00734); experiment: Thrombin-catalyzed fibrin polymerization, turbidity at 350 nm; format: biochemical; settings: fibrinogen 0.1 mg/mL, thrombin 0.05 U/mL
Procedure: FIG. 26: Thrombin-catalyzed fibrin polymerization. Polymerization of fibrinogen (0.1 mg/mL) was initiated by the addition of thrombin (0.05 U/mL), factor XIIIa (Fibrogammin®, CSL Behring) (50 mU/ml) as well as CaCl2 (10 mM). The change in turbidity at 350 nm was followed with time (0-3600 sec). Representative polymerization curves of plasma Fibrinogen (square) and His-rFbgH433R435 (triangle).
Turbidity experiments were conducted on a Tecan Infinite M Plex plate reader at 37° C. A 96-well plate with a final volume of 100 μl per well was used and was experiments were performed in triplicate. The Thrombin-catalyzed fibrin polymerization of fibrinogen (0.1 mg/mL) was initiated by the addition of thrombin (0.05 U/mL), factor Xllla (Fibrogammin®, CSL Behring; 50 mU/ml) as well as CaCl2 (10 mM). The change in turbidity at 350 nm was followed over time (0-3600 sec).

## His-rFbgH433R435: Aα, Bβ- and γ-chain fibrinogen; α-chain L433H, T435R (SEQ ID 79), γ-chain K88H, K111H, K382H, K399H (SEQ ID 80)
ExpiCHO-S cells
  α-chain degradation during CHO cell protein expression: not detectable
FXIIIa; conclusion from polymerization and cross-linking experiments
  formation of functional fibrin gels: forms functional fibrin gels
FXIIIa; fibrinogen 0.1 mg/mL, FXIIIa 0.5 U/mL, thrombin 0.05 U/mL, CaCl2 10 mM, 37° C.
  incubation time after which cross-linked γ-γ-dimer bands were visible: 5 min
thrombin; factor XIIIa 50 mU/ml, CaCl2 10 mM, 37° C., 0-3600 sec
  thrombin-induced fibrin polymerization compared with control (pFbg): slightly reduced
thrombin; turbidity 350 nm
  absorption in fibrin polymerization compared with control (pFbg): comparable
  lag time of fibrin polymerization compared with control (pFbg): similar
